Source: the Human Domainome abundance scans (Beltran et al. 2025)
± gives the uncertainty stated by the source.

B1: Gamma-crystallin C, residues 4 to 79; numbered along this chain, P07315 (parent)
chain: ITFYEDRAFQGRSYETTTDCPNLQPYFSRCNSIRVESGCWMLYERPNYQGQQYLLRRGEYPDYQQWMGLSDSIRSC

Variants of: B1
Assay: abundance fitness (aPCA) (normalised: wild type 0, dead -1); higher = more abundant; growth selection in yeast, the domain comes from the species named
Conditions: Homo sapiens

P61C and P61Y are within error of each other in abundance fitness: -0.072 ± 0.052 for the first, -0.018 ± 0.17 for the second.

R29Q and R29T are within error of each other in abundance fitness: -0.117 ± 0.14 for the first, 0.101 ± 0.14 for the second.

D62Y and D62H are within error of each other in abundance fitness: -0.037 ± 0.12 for the first, -0.106 ± 0.096 for the second.

D62L and D62N are within error of each other in abundance fitness: -0.086 ± 0.085 for the first, -0.043 ± 0.1 for the second.

D62P and R45Q are within error of each other in abundance fitness: -0.401 ± 0.16 for the first, -0.13 ± 0.33 for the second.

R45A and R45K are within error of each other in abundance fitness: -0.025 ± 0.084 for the first, 0.089 ± 0.12 for the second.

E44T and E44C are within error of each other in abundance fitness: -0.206 ± 0.14 for the first, 0.068 ± 0.19 for the second.

E44W and E44V are within error of each other in abundance fitness: -0.372 ± 0.12 for the first, -0.147 ± 0.11 for the second.

Compared with E44D, L55S is lower in abundance fitness: 0.022 ± 0.14 for the first, -0.701 ± 0.15 for the second.

Going from L55F to L55I, the abundance fitness rises from -0.246 ± 0.1 to 0.038 ± 0.16.

W66I and W66A are within error of each other in abundance fitness: -0.006 ± 0.11 for the first, 0.039 ± 0.078 for the second.

W66K and W66T are within error of each other in abundance fitness: -0.023 ± 0.095 for the first, 0.021 ± 0.083 for the second.

W66D and W66H are within error of each other in abundance fitness: -0.12 ± 0.12 for the first, -0.01 ± 0.18 for the second.

D19H and D19Q are within error of each other in abundance fitness: -0.074 ± 0.17 for the first, -0.032 ± 0.12 for the second.

S37I and S37T are within error of each other in abundance fitness: 0.072 ± 0.27 for the first, 0.028 ± 0.14 for the second.

S37H and S37C are within error of each other in abundance fitness: -0.142 ± 0.25 for the first, -0.091 ± 0.14 for the second.

S37R and S37E are within error of each other in abundance fitness: -0.004 ± 0.078 for the first, -0.12 ± 0.097 for the second.

T16Q and T16S are within error of each other in abundance fitness: 0.027 ± 0.081 for the first, -0.034 ± 0.093 for the second.

Going from T16D to T16H, the abundance fitness rises from -0.215 ± 0.066 to 0.007 ± 0.096.

T16R and T16V are within error of each other in abundance fitness: -0.078 ± 0.081 for the first, 0.031 ± 0.083 for the second.

Compared with T16N, G58L is lower in abundance fitness: -0.116 ± 0.13 for the first, -0.659 ± 0.12 for the second.

Compared with G58E, G58D is higher in abundance fitness: -0.272 ± 0.15 for the first, 0.251 ± 0.33 for the second.

G58N and Y26W are within error of each other in abundance fitness: 0.034 ± 0.14 for the first, -0.092 ± 0.1 for the second.

Y26V and E36A are within error of each other in abundance fitness: 0.046 ± 0.088 for the first, 0.048 ± 0.19 for the second.

E36M and E36L are within error of each other in abundance fitness: 0.019 ± 0.14 for the first, -0.078 ± 0.12 for the second.

E36I and Q65E are within error of each other in abundance fitness: -0.201 ± 0.23 for the first, 0.052 ± 0.073 for the second.

Q65D and Q65T are within error of each other in abundance fitness: -0.019 ± 0.085 for the first, -0.089 ± 0.057 for the second.

Q65M and Q65N are within error of each other in abundance fitness: 0.015 ± 0.24 for the first, 0.014 ± 0.14 for the second.

A8M and A8D are within error of each other in abundance fitness: 0.013 ± 0.12 for the first, -0.275 ± 0.24 for the second.

A8F and A8R are within error of each other in abundance fitness: -0.06 ± 0.13 for the first, -0.005 ± 0.061 for the second.

Going from C20D to C20G, the abundance fitness falls from 0.169 ± 0.052 to -0.058 ± 0.07.

C20T and C20W are within error of each other in abundance fitness: 0.019 ± 0.1 for the first, -0.103 ± 0.046 for the second.

G68A and G68L are within error of each other in abundance fitness: 0.003 ± 0.073 for the first, -0.027 ± 0.048 for the second.

Compared with G68R, Y4G is lower in abundance fitness: 0.079 ± 0.043 for the first, -0.863 ± 0.14 for the second.

Y4E and Y4V are within error of each other in abundance fitness: -0.848 ± 0.27 for the first, -1.11 ± 0.17 for the second.

Y4A and Y4Q are within error of each other in abundance fitness: -0.989 ± 0.15 for the first, -1.01 ± 0.39 for the second.

Going from I33S to I33F, the abundance fitness rises from -0.642 ± 0.2 to -0.057 ± 0.14.

I33Q and I33K are within error of each other in abundance fitness: -0.792 ± 0.27 for the first, -0.835 ± 0.25 for the second.

I33E and I33T are within error of each other in abundance fitness: -0.676 ± 0.37 for the first, -0.494 ± 0.15 for the second.

Compared with I33R, Y14M is higher in abundance fitness: -0.883 ± 0.15 for the first, 0.423 ± 0.29 for the second.

Y14N and Y14L are within error of each other in abundance fitness: -0.154 ± 0.23 for the first, -0.101 ± 0.072 for the second.

Y14C showed an abundance fitness of -0.227 ± 0.15.
